In patent US20150361183A1 (published 2015):
Read-outs that look alike come from different tables or passages of the source.

Key:
iC3b [1] = target: T1, iC3b (UniProt P01024 23-667; P01024 749-1303; P01024 1321-1663); assay: SPR; thioester-coupled (clustered), steady state
C3b [2] = target: T2, C3b (UniProt P01024 749-1663; P01024 23-667); assay: SPR; amine-coupled C3b (monomeric), steady state
C3b [3] = target: T2, C3b; assay: SPR; thioester-coupled C3b (clustered), steady state
C3b [4] = target: T2, C3b; assay: SPR; amine-coupled C3b (monomeric), steady state; remark: listed apart in the source
C3dg = C3dg (UniProt P01024 955-1303); assay: SPR; thioester-coupled (clustered), steady state
Sequence of C3dg (P01024 955-1303): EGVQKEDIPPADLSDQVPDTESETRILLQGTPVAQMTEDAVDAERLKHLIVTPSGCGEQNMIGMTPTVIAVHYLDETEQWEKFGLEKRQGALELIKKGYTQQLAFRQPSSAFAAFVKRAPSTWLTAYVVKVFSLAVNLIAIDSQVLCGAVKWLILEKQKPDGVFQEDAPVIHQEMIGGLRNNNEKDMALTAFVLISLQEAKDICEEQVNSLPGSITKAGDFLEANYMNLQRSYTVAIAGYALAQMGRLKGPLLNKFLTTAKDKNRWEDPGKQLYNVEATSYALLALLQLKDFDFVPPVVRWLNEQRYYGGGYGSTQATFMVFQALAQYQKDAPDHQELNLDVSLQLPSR

iC3b [5] = target: T1, iC3b; assay: SPR; thioester-coupled (clustered), steady state; remark: listed apart in the source

T2 sequence (P01024 749-1663, chain 1 of 2): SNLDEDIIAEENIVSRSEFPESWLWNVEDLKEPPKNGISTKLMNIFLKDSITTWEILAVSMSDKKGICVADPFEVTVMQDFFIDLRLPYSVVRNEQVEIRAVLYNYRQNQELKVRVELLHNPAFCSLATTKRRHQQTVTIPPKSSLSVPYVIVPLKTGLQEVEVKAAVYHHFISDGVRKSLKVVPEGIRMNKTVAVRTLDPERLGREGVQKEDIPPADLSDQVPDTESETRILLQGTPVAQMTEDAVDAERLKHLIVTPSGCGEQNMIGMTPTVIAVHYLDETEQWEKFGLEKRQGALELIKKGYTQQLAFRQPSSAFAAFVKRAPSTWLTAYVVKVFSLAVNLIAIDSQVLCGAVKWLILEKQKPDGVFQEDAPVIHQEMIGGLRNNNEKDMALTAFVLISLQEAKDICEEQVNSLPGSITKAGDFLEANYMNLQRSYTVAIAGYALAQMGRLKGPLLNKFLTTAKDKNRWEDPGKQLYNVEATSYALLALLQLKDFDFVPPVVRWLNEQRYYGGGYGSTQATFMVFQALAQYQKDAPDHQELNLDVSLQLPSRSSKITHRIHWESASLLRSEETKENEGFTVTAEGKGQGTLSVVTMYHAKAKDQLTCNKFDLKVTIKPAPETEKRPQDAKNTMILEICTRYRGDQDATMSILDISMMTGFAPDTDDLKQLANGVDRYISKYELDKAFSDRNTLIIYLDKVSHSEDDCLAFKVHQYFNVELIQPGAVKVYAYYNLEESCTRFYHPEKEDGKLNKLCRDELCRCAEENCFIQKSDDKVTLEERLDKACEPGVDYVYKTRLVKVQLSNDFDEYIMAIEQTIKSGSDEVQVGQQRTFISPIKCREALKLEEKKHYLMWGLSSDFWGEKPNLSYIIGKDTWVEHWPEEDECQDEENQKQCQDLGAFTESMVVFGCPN
T2 sequence (P01024 23-667, chain 2 of 2): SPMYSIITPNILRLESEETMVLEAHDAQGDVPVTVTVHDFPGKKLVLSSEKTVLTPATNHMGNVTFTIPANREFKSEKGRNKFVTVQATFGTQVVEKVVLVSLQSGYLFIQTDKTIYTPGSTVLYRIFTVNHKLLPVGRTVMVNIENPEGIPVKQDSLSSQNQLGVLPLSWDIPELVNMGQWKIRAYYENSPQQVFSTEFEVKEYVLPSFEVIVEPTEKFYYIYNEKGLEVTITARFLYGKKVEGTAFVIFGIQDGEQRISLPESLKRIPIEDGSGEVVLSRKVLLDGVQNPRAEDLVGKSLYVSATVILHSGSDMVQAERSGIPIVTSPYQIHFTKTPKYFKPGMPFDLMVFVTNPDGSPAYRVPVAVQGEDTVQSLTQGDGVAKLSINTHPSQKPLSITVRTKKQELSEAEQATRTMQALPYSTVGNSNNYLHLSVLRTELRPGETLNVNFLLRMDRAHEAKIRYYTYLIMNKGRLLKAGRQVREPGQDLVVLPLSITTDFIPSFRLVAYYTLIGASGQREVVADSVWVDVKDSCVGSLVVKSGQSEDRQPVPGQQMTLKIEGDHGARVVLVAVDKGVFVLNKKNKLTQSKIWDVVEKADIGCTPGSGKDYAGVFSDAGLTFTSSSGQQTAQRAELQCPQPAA
T1 sequence (P01024 23-667, chain 1 of 3): as the sequence (P01024 23-667, chain 2 of 2) above
T1 sequence (P01024 749-1303, chain 2 of 3): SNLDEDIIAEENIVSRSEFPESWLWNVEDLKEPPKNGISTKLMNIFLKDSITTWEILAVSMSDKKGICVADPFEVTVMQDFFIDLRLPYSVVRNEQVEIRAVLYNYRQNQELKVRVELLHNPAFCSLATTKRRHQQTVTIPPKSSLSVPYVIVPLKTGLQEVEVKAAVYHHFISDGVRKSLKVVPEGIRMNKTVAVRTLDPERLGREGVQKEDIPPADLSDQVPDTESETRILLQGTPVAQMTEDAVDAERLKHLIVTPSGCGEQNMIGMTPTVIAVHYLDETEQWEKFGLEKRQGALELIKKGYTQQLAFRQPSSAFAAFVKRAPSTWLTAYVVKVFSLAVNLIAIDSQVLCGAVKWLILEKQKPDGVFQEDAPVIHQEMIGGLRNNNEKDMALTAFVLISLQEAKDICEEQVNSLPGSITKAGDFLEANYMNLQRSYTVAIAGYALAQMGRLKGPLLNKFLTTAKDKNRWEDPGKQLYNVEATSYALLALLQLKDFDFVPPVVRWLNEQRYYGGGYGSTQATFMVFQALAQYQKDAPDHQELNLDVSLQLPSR
T1 sequence (P01024 1321-1663, chain 3 of 3): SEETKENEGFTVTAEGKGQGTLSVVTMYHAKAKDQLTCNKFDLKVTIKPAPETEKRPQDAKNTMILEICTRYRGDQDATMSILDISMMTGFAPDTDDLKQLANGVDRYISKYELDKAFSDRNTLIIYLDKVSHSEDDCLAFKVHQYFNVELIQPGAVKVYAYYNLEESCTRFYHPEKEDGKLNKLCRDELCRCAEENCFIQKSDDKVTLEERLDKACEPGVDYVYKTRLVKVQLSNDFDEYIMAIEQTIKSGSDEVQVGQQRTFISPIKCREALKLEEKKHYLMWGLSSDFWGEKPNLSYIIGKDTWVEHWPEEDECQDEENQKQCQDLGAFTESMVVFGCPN

Kd (iC3b [1])	Kd (C3b [2])	Kd (C3b [3])	Kd (C3b [4])	Kd (C3dg)	Kd (iC3b [5])	Binder
2.6 µM	1.7 µM					Complement factor H (CFH) (other) EDCNELPPRRNTEILTGSWSDQTYPEGTQAIYKCRPGYRSLGNVIMVCRKGEWVALNPLRKCQKRPCGHPGDTPFGTFTLTGGNVFEYGVKAVYTCNEGYQLLGEINYRECDTDGWTNDIPICEVVKCLPVTAPENGKIVSSAMEPDREYHFGQAVRFVCNSGYKIEGDEEMHCSDDGFWSKEKPKCVEISCKSPDVINGSPISQKIIYKENERFQYKCNMGYEYSERGDAVCTESGWRPLPSCEEKSCDNPYIPNGDYSPLRIKHRTGDEITYQCRNGFYPATRGNTAKCTSTGWIPAPRCTLKPCDYPDIKHGGLYHENMRRPYFPVAVGKYYSYYCDEHFETPSGSYWDHIHCTQDGWSPAVPCLRKCYFPYLENGYNQNYGRKFVQGKSIDVACHPGYALPKAQTTVTCMENGWSPTPRCIRVKTCSKSSIDIENGFISESQYTYALKEKAKYQCKLGYVTADGETSGSITCGKDGWSAQPTCIKSCDIPVFMNARTKNDFTWFKLNDTLDYECHDGYESNTGSTTGSIVCGYNGWSDLPICYERECELPKIDVHLVPDRKKDQYKVGEVLKFSCKPGFTIVGPNSVQCYHFGLSPDLPICKEQVQSCGPPPELLNGNVKEKTKEEYGHSEVVEYYCNPRFLMKGPNKIQCVDGEWTTLPVCIVEESTCGDIPELEHGWAQLSSPPYYYGDSVEFNCSESFTMIGHRSITCIHGVWTQLPQCVAIDKLKKCKSSNLIILEEHLKNKKEFDHNSNIRYRCRGKEGWIHTVCINGRWDPEVNCSMAQIQLCPPPPQIPNSHNMTTTLNYRDGEKVSVLCQENYLIQEGEEITCKDGRWQSIPLCVEKIPCSQPPQIEHGTINSSRSSQESYAHGTKLSYTCEGGFRISEENETTCYMGKWSSPPQCEGLPCKSPPEISHGVVAHMSDSYQYGEEVTYKCFEGFGIDGPAIAKCLGEKWSHPPSCIKTDCLSLPSFENAIPMGEKKDVYKAGEQVTYTCATYYKMDGASNVTCINSRWTGRPTCRDTSCVNPPTVQNAYIVSRQMSKYPSGERVRYQCRSPYEMFGDEEVMCLNGNWTEPPQCKDSTGKCGPPPPIDNGDITSFPLSVYAPASSVEYQCQNLYQLEGNKRITCRNGQWSEPPKCLHPCVISREIMENYNIALRWTAKQKLYSRTGESVEFVCKRGYRLSSRSHTLRTTCWDGKLEYPTCAKR
		0.31 µM	3.8 µM	0.27 µM	0.27 µM	CFHR5 (complement factor H-related protein 5), wild type (other) EGTLCDFPKIHHGFLYDEEDYNPFSQVPTGEVFYYSCEYNFVSPSKSFWTRITCTEEGWSPTPKCLRMCSFPFVKNGHSESSGLIHLEGDTVQIICNTGYSLQNNEKNISCVERGWSTPPICSFTKGECHVPILEANVDAQPKKESYKVGDVLKFSCRKNLIRVGSDSVQCYQFGWSPNFPTCKGQVRSCGPPPQLSNGEVKEIRKEEYGHNEVVEYDCNPNFIINGPKKIQCVDGEWTTLPTCVEQVKTCGYIPELEYGYVQPSVPPYQHGVSVEVNCRNEYAMIGNNMITCINGIWTELPMCVATHQLKRCKIAGVNIKTLLKLSGKEFNHNSRIRYRCSDIFRYRHSVCINGKWNPEVDCTEKREQFCPPPPQIPNAQNMTTTVNYQDGEKVAVLCKENYLLPEAKEIVCKDGRWQSLPRCVESTAYCGPPPSINNGDTTSFPLSVYPPGSTVTYRCQSFYKLQGSVTVTCRNKQWSEPPRCLDPCVVSEENMNKNNIQLKWRNDGKLYAKTGDAVEFQCKFPHKAMISSPPFRAICQEGKFEYPICE
